Assay results published in publication PMC11047111 (Proceedings of the National Academy of Sciences of the …, 2024).
Substitutions are numbered along the chain they refer to. Names and notes keep the numbering of the source. Values belong to the binder of their own block, whether it stands above or below them.

How the values were obtained:
[1] = biological target: the molecule itself; test: SEC
[2] = biological target: CUL3^NTD (N-terminal domain of cullin 3, residues 1 to 381) (UniProt Q13618 1-381); test: BLI
Chain of CUL3^NTD (N-terminal domain of cullin 3, residues 1 to 381) (Q13618 1-381): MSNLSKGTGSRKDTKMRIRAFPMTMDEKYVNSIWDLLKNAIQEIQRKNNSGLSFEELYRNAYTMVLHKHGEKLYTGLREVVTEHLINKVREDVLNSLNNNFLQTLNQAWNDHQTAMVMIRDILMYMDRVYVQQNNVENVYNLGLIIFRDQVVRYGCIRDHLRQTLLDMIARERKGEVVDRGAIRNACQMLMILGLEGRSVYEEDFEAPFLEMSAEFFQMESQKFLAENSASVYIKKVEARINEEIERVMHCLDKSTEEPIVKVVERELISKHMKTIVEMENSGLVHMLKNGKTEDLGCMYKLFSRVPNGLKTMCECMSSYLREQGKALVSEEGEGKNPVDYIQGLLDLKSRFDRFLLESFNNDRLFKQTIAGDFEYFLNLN

B1: KCTD5 (natural protein)
chain: MAENHCELLSPARGGIGAGLGGGLCRRCSAGLGALAQRPGSVSKWVRLNVGGTYFLTTRQTLCRDPKSFLYRLCQADPDLDSDKDETGAYLIDRDPTYFGPVLNYLRHGKLVINKDLAEEGVLEEAEFYNITSLIKLVKDKIRERDSKTSQVPVKHVYRVLQCQEEELTQMVSTMSDGWKFEQLVSIGSSYNYGNEDQAEFLCVVSKELHNTPYGTASEPSEKAKILQERGSRM
stoichiometry N [1]: 5

binding result [2]: binds
B2: KCTD5 L161R (natural protein)
chain: B1 chain with L161R
